In the supplement of paper PMC11246515:
± gives the standard deviation of the averaged measurements.

Assay: total protein half-life in vivo (active degradation + dilution); higher = more stable protein
[1] = E. coli NCM3722 delta-clpP delta-lon delta-hslV, growth: N-lim chemostat, doubling time 6 h
[2] = E. coli NCM3722 delta-hslV, growth: N-lim chemostat, doubling time 6 h
[3] = E. coli NCM3722 delta-lon, growth: N-lim chemostat, doubling time 6 h
[4] = E. coli NCM3722 delta-smpB, growth: N-lim chemostat, doubling time 6 h
[5] = wild type E. coli NCM3722, growth: C-lim chemostat, doubling time 3 h
[6] = wild type E. coli NCM3722, growth: C-lim chemostat, doubling time 6 h
[7] = wild type E. coli NCM3722, growth: C-lim chemostat, doubling time 12 h
[8] = wild type E. coli NCM3722, growth: N-lim chemostat, doubling time 6 h
[9] = wild type E. coli NCM3722, growth: N-lim chemostat, doubling time 12 h
[10] = wild type E. coli NCM3722, growth: P-lim chemostat, doubling time 6 h
[11] = wild type E. coli NCM3722, growth: P-lim chemostat, doubling time 12 h

Sequence	total protein half-life in vivo [1] [h]	total protein half-life in vivo (E. coli NCM3722 delta-clpP, growth: N-lim chemostat, doubling time 6 h) [h]	total protein half-life in vivo [2] [h]	total protein half-life in vivo [3] [h]	total protein half-life in vivo [4] [h]	total protein half-life in vivo [5] [h]	total protein half-life in vivo [6] [h]	total protein half-life in vivo [7] [h]	total protein half-life in vivo [8] [h]	total protein half-life in vivo [9] [h]	total protein half-life in vivo [10] [h]	total protein half-life in vivo [11] [h]
MIERGKFRSLTLINWNGFFARTFDLDELVTTLSGGNGAGKSTTMAAFVTALIPDLTLLHFRNTTEAGATSGSRDKGLHGKLKAGVCYSMLDTINSRHQRVVVGVRLQQVAGRDRKVDIKPFAIQGLPMSVQPTQLVTETLNERQARVLPLNELKDKLEAMEGVQFKQFNSITDYHSLMFDLGIIARRLRSASDRSKFYRLIEASLYGGISSAITRSLRDYLLPENSGVRKAFQDMEAALRENRMTLEAIRVTQSDRDLFKHLISEATNYVAADYMRHANERRVHLDKALEFRRELHTSRQQLAAEQYKHVDMARELAEHNGAEGDLEADYQAASDHLNLVQTALRQQEKIERYEADLDELQIRLEEQNEVVAEAIERQQENEARAEAAELEVDELKSQLADYQQALDVQQTRAIQYNQAIAALNRAKELCHLPDLTADCAAEWLETFQAKELEATEKMLSLEQKMSMAQTAHSQFEQAYQLVVAINGPLARNEAWDVARELLREGVDQRHLAEQVQPLRMRLSELEQRLREQQEAERLLADFCKRQGKNFDIDELEALHQELEARIASLSDSVSNAREERMALRQEQEQLQSRIQSLMQRAPVWLAAQNSLNQLSEQCGEEFTSSQDVTEYLQQLLEREREAIVERDEVGARKNAVDEEIERLSQPGGSEDQRLNALAERFGGVLLSEIYDDVSLEDAPYFSALYGPSRHAIVVPDLSQVTEHLEGLTDCPEDLYLIEGDPQSFDDSVFSVDELEKAVVVKIADRQWRYSRFPEVPLFGRAARESRIESLHAEREVLSERFATLSFDVQKTQRLHQAFSRFIGSHLAVAFESDPEAEIRQLNSRRVELERALSNHENDNQQQRIQFEQAKEGVTALNRILPRLNLLADDSLADRVDEIRERLDEAQEAARFVQQFGNQLAKLEPIVSVLQSDPEQFEQLKEDYAYSQQMQRDARQQAFALTEVVQRRAHFSYSDSAEMLSGNSDLNEKLRERLEQAEAERTRAREALRGHAAQLSQYNQVLASLKSSYDTKKELLNDLQRELQDIGVRADSGAEERARIRRDELHAQLSNNRSRRNQLEKALTFCEAEMDNLTRKLRKLERDYFEMREQVVTAKAGWCAVMRMVKDNGVERRLHRRELAYLSADDLRSMSDKALGALRLAVADNEHLRDVLRMSEDPKRPERKIQFFVAVYQHLRERIRQDIIRTDDPVEAIEQMEIELSRLTEELTSREQKLAISSRSVANIIRKTIQREQNRIRMLNQGLQNVSFGQVNSVRLNVNVRETHAMLLDVLSEQHEQHQDLFNSNRLTFSEALAKLYQRLNPQIDMGQRTPQTIGEELLDYRNYLEMEVEVNRGSDGWLRAESGALSTGEAIGTGMSILVMVVQSWEDESRRLRGKDISPCRLLFLDEAARLDARSIATLFELCERLQMQLIIAAPENISPEKGTTYKLVRKVFQNTEHVHVVGLRGFAPQLPETLPGTDEAPSQAS	6.61 ± 0.52	6.45 ± 0.38	4.36 ± 0.13	4.16 ± 0.34	4.2 ± 0.079	2.91 ± 0.16	5.16 ± 0.064	8.24 ± 0.095	4.374 ± 0.017	5.78 ± 0.3	4.74 ± 0.084	6.65 ± 0.25
MSQDPFQEREAEKYANPIPSREFILEHLTKREKPASRDELAVELHIEGEEQLEGLRRRLRAMERDGQLVFTRRQCYALPERLDLVKGTVIGHRDGYGFLRVEGRKDDLYLSSEQMKTCIHGDQVLAQPLGADRKGRREARIVRVLVPKTSQIVGRYFTEAGVGFVVPDDSRLSFDILIPPDQIMGARMGFVVVVELTQRPTRRTKAVGKIVEVLGDNMGTGMAVDIALRTHEIPYIWPQAVEQQVAGLKEEVPEEAKAGRVDLRDLPLVTIDGEDARDFDDAVYCEKKRGGGWRLWVAIADVSYYVRPSTPLDREARNRGTSVYFPSQVIPMLPEVLSNGLCSLNPQVDRLCMVCEMTVSSKGRLTGYKFYEAVMSSHARLTYTKVWHILQGDQDLREQYAPLVKHLEELHNLYKVLDKAREERGGISFESEEAKFIFNAERRIERIEQTQRNDAHKLIEECMILANISAARFVEKAKEPALFRIHDKPSTEAITSFRSVLAELGLELPGGNKPEPRDYAELLESVADRPDAEMLQTMLLRSMKQAIYDPENRGHFGLALQSYAHFTSPIRRYPDLTLHRAIKYLLAKEQGHQGNTTETGGYHYSMEEMLQLGQHCSMAERRADEATRDVADWLKCDFMLDQVGNVFKGVISSVTGFGFFVRLDDLFIDGLVHVSSLDNDYYRFDQVGQRLMGESSGQTYRLGDRVEVRVEAVNMDERKIDFSLISSERAPRNVGKTAREKAKKGDAGKKGGKRRQVGKKVNFEPDSAFRGEKKTKPKAAKKDARKAKKPSAKTQKIAAATKAKRAAKKKVAE	6.54 ± 0.13		5.66 ± 0.29	5.87 ± 0.12	5.35 ± 0.14	3.06 ± 0.13	6.06 ± 0.13	12.1 ± 0.14	5.67 ± 0.095	9.82 ± 0.13	5.679 ± 0.029	11.2 ± 0.32
